We go through two variants from IntAct's records for PubMed 29892012.

To fix the notation:
B1: Abl interactor 2 (Homo sapiens), Q9NYB9 (parent)
chain: MAELQMLLEEEIPGGRRALFDSYTNLERVADYCENNYIQSADKQRALEETKAYTTQSLASVAYLINTLANNVLQMLDIQASQLRRMESSINHISQTVDIHKEKVARREIGILTTNKNTSRTHKIIAPANLERPVRYIRKPIDYTILDDIGHGVKWLLRFKVSTQNMKMGGLPRTTPPTQKPPSPPMSGKGTLGRHSPYRTLEPVRPPVVPNDYVPSPTRNMAPSQQSPVRTASVNQRNRTYSSSGSSGGSHPSSRSSSRENSGSGSVGVPIAVPTPSPPSVFPAPAGSAGTPPLPATSASAPAPLVPATVPSSTAPNAAAGGAPNLADGFTSPTPPVVSSTPPTGHPVQFYSMNRPASRHTPPTIGGSLPYRRPPSITSQTSLQNQMNGGPFYSQNPVSDTPPPPPPVEEPVFDESPPPPPPPEDYEEEEAAVVEYSDPYAEEDPPWAPRSYLEKVVAIYDYTKDKEDELSFQEGAIIYVIKKNDDGWYEGVMNGVTGLFPGNYVESIMHYSE
B2: Histone-lysine N-methyltransferase SMYD1 (Homo sapiens), Q8NB12 (parent)
chain: MTIGRMENVEVFTAEGKGRGLKATKEFWAADIIFAERAYSAVVFDSLVNFVCHTCFKRQEKLHRCGQCKFAHYCDRTCQKDAWLNHKNECSAIKRYGKVPNENIRLAARIMWRVEREGTGLTEGCLVSVDDLQNHVEHFGEEEQKDLRVDVDTFLQYWPPQSQQFSMQYISHIFGVINCNGFTLSDQRGLQAVGVGIFPNLGLVNHDCWPNCTVIFNNGNHEAVKSMFHTQMRIELRALGKISEGEELTVSYIDFLNVSEERKRQLKKQYYFDCTCEHCQKKLKDDLFLGVKDNPKPSQEVVKEMIQFSKDTLEKIDKARSEGLYHEVVKLCRECLEKQEPVFADTNIYMLRMLSIVSEVLSYLQAFEEASFYARRMVDGYMKLYHPNNAQLGMAVMRAGLTNWHAGNIEVGHGMICKAYAILLVTHGPSHPITKDLEAMRVQTEMELRMFRQNEFMYYKMREAALNNQPMQVMAEPSNEPSPALFHKKQ
partner: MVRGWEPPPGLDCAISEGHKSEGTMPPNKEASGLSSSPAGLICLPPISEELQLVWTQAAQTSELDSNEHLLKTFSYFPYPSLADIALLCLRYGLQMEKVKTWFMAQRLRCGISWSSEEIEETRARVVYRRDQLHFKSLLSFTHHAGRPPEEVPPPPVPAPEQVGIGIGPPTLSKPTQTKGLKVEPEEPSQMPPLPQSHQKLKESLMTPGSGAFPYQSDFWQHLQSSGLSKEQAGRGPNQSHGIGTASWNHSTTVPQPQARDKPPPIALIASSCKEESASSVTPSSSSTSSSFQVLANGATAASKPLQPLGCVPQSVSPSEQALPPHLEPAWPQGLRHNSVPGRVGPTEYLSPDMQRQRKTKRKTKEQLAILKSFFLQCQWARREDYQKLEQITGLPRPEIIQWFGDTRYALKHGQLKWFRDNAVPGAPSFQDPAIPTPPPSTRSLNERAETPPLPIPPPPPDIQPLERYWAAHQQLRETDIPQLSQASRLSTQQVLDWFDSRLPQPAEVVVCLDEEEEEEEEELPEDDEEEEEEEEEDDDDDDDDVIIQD

The first assay covers variants of B1. Conditions: with ift20_human IFT20, Q8IY31.
ift20_human IFT20, Q8IY31, sequence (Q8IY31 whole entry): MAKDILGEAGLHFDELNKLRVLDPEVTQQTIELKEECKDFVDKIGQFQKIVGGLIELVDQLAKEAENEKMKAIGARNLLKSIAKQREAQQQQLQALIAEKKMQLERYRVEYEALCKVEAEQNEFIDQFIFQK
For the variant E202K, the “effect of a mutation on the interaction” value is “with no effect”.

The next assay covers variants of B1. Conditions: with wipf1_human WIPF1, O43516.
Take E202K: the “effect of a mutation on the interaction” value was “with no effect”.

A further assay covers variants of B1. Conditions: with k1h1_human KRT31, Q15323.
k1h1_human KRT31, Q15323, sequence (Q15323 whole entry): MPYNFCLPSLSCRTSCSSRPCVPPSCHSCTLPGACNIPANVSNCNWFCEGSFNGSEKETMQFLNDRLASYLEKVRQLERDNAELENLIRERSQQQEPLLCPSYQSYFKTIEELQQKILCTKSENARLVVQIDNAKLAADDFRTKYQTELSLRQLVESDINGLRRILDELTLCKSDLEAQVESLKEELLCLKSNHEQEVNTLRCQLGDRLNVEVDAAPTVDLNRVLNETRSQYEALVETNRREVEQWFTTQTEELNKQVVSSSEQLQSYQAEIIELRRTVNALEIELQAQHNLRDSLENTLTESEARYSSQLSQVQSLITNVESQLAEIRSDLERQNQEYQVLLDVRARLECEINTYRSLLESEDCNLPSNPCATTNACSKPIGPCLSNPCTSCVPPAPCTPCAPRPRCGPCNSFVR
Regarding E202K, the “effect of a mutation on the interaction” value was “with no effect”.

Another assay covers variants of B1. Conditions: with aapk2_human PRKAA2, P54646.
As to E202K, the “effect of a mutation on the interaction” value is reported as “with no effect”.

The variants in a further assay derive from B1. Conditions: with skt_human KIAA1217, Q5T5P2.
skt_human KIAA1217, Q5T5P2, sequence (Q5T5P2 whole entry): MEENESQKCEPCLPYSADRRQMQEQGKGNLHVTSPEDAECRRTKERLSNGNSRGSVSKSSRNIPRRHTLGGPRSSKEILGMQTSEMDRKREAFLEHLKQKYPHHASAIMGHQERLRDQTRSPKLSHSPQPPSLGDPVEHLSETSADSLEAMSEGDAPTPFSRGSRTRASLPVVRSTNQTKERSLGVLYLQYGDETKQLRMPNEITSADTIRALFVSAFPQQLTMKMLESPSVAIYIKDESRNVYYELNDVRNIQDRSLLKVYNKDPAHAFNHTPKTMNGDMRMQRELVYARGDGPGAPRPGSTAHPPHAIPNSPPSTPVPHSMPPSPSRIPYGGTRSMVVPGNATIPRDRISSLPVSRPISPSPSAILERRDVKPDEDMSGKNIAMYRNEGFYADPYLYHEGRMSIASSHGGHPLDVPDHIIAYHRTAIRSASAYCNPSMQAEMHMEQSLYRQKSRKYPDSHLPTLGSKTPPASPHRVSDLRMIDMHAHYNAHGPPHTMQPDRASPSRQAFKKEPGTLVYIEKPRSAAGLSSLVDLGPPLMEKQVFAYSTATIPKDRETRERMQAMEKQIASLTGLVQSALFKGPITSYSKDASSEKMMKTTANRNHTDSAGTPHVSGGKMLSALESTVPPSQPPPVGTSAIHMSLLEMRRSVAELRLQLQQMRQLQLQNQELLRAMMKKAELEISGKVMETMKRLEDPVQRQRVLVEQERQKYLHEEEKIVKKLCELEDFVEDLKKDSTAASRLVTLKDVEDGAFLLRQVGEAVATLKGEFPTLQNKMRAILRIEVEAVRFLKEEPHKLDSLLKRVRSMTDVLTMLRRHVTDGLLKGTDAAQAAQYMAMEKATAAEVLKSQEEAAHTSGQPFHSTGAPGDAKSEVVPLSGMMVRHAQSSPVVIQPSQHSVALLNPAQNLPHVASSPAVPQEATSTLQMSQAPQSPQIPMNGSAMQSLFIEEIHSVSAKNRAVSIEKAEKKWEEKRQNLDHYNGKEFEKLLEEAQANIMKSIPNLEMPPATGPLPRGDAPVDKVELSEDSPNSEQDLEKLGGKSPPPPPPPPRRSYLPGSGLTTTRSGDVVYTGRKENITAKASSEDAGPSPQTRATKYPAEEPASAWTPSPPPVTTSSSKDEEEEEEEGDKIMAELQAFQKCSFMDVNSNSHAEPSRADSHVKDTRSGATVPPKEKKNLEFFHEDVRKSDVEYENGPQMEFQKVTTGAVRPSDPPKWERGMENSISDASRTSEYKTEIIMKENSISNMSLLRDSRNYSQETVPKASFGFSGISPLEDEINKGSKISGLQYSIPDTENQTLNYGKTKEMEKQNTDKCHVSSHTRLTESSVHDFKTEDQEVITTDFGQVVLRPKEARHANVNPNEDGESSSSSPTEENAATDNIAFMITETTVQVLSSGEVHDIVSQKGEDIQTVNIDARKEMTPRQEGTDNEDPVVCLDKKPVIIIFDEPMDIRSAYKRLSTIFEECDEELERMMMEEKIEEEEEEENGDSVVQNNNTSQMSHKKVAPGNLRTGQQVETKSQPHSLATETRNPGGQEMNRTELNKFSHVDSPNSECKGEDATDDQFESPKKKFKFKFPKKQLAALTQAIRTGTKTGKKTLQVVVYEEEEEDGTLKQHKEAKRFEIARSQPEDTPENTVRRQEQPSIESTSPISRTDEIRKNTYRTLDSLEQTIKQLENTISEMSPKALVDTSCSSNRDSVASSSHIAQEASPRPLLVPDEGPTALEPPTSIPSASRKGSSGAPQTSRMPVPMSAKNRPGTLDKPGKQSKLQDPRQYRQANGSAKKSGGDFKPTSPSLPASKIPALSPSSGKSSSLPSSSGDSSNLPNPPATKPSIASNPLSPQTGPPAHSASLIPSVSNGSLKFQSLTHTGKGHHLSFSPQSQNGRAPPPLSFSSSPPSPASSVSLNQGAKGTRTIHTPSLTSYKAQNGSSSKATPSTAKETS
E202K: the “effect of a mutation on the interaction” value was “with no effect”.

Variants of B1 are the subject of the next assay. Conditions: with aapk1_human PRKAA1, Q13131.
On to E202K, for which the “effect of a mutation on the interaction” value was “with no effect”.

Variants of B1 are the subject of a further assay. Conditions: with eif3h_human EIF3H.
As to E202K, the “effect of a mutation on the interaction” value is on record as “with no effect”.

The variants in another assay derive from B1. Conditions: with hnrpk_human HNRNPK.
Consider E202K, for which the “effect of a mutation on the interaction” value is “with no effect”.

Variants of B1 are the subject of a further assay. Conditions: with tri32_human TRIM32, Q13049.
tri32_human TRIM32, Q13049, sequence (Q13049 whole entry): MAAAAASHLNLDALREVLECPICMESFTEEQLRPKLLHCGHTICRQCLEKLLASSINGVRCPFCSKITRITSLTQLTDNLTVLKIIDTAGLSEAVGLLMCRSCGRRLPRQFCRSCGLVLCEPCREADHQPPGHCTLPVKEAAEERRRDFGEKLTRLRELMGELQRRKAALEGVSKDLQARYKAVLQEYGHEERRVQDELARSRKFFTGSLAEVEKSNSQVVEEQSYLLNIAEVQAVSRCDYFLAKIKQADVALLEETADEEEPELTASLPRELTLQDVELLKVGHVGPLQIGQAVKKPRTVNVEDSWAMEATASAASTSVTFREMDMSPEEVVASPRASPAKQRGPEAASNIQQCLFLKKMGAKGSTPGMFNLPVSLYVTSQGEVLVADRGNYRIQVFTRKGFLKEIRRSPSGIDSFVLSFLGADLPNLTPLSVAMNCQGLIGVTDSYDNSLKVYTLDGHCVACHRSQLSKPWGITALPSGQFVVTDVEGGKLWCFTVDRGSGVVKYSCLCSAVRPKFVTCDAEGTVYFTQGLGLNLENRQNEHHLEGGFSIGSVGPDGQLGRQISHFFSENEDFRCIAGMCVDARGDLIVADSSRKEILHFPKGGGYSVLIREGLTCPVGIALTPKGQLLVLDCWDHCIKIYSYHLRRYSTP
For the variant E202K, the “effect of a mutation on the interaction” value is on record as “with no effect”.

The variants in a further assay derive from B1. Conditions: with vasp_human VASP.
Turning to E202K, the “effect of a mutation on the interaction” value was “with no effect”.

Variants of B1 are the subject of a further assay. Conditions: with ppif_human PPIF.
On to E202K, for which the “effect of a mutation on the interaction” value is “with no effect”.

Variants of B1 are the subject of another assay. Conditions: with KRT15, P19012.
KRT15, P19012, sequence (P19012 whole entry): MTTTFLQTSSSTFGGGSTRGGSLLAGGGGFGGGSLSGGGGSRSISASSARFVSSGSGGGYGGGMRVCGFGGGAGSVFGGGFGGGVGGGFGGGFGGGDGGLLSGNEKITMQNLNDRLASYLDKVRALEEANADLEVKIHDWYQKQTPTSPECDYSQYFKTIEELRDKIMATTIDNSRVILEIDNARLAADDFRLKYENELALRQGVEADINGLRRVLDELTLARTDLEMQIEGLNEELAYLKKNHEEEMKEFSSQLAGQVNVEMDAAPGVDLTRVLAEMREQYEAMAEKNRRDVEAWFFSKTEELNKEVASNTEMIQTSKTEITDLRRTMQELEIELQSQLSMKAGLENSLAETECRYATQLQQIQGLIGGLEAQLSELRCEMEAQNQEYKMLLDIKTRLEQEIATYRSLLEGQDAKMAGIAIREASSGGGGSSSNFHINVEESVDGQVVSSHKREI
As to E202K, the “effect of a mutation on the interaction” value is given as “with no effect”.

Another assay covers variants of B1. Conditions: with nup62_human NUP62, P37198.
nup62_human NUP62, P37198, sequence (P37198 whole entry): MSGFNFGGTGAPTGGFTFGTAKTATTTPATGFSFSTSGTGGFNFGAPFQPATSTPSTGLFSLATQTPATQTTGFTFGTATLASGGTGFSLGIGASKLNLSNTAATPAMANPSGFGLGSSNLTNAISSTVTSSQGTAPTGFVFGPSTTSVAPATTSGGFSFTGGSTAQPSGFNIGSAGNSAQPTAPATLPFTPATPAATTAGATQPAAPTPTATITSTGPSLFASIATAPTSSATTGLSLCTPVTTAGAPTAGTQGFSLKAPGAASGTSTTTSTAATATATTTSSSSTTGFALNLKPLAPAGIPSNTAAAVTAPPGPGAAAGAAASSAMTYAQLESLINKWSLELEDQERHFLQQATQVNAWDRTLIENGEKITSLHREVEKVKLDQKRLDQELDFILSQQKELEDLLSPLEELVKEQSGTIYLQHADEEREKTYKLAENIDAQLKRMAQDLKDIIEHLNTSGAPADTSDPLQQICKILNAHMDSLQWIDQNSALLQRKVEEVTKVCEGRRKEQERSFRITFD
For E202K, the “effect of a mutation on the interaction” value was “with no effect”.

Variants of B1 are the subject of a further assay. Conditions: with KRT19, P08727.
In the case of E202K, the “effect of a mutation on the interaction” value was “with no effect”.

The variants in the next assay derive from B1. Conditions: with rhg32_human ARHGAP32, A7KAX9.
E202K: the “effect of a mutation on the interaction” value is given as “with no effect”.

A further assay covers variants of B1. Conditions: with nck2_human NCK2, O43639.
nck2_human NCK2, O43639, sequence (O43639 whole entry): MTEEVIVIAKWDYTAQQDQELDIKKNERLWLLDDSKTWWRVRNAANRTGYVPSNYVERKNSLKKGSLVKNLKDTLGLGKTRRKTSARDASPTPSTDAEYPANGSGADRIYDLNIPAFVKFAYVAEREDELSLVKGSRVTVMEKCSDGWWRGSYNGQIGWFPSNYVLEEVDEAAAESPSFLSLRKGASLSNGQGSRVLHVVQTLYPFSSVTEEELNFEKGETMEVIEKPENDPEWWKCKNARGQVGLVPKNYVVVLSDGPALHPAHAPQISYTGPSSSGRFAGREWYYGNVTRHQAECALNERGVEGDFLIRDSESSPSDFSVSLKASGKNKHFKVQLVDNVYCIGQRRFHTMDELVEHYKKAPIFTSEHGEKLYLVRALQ
For E202K, the “effect of a mutation on the interaction” value was “with no effect”.

A further assay covers variants of B1. Conditions: with hgs_human HGS.
For E202K, the “effect of a mutation on the interaction” value was “with no effect”.

A further assay covers variants of B1. Conditions: with pcm1_human PCM1, Q15154.
For E202K, the “effect of a mutation on the interaction” value is given as “with no effect”.

In a further assay the parent is B1. Conditions: with stam2_human STAM2, O75886.
For E202K, the “effect of a mutation on the interaction” value is reported as “with no effect”.

In a further assay the parent is B1. Conditions: with vinc_human VCL.
Regarding E202K, the “effect of a mutation on the interaction” value is recorded as “disrupting interaction strength”.

Variants of B1 are the subject of another assay. Conditions: with crx_human CRX.
In the case of E202K, the “effect of a mutation on the interaction” value is on record as “with no effect”.

Variants of B1 are the subject of another assay. Conditions: with mr1l1_human MRFAP1L1, Q96HT8.
mr1l1_human MRFAP1L1, Q96HT8, sequence (Q96HT8 whole entry): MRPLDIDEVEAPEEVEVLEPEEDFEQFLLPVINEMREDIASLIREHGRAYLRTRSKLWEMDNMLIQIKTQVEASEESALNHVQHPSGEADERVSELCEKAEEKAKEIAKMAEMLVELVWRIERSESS
As for E202K, the “effect of a mutation on the interaction” value is “disrupting interaction strength”.

Another assay covers variants of B1. Conditions: with sdcb1_human SDCBP.
For E202K, the “effect of a mutation on the interaction” value is “disrupting interaction strength”.

In the next assay the parent is B1. Conditions: with efs_human EFS.
Take E202K: the “effect of a mutation on the interaction” value is “with no effect”.

Variants of B2 are the subject of another assay. Conditions: with homez_human HOMEZ.
With Q443R, the “effect of a mutation on the interaction” value was “with no effect”.
